According to article PMC8630228:
Several values for one entry are separate records, joined by “and”; a condition that tells them apart may be missing. Equal entries are not always repeated.

Molecular target: precursor δ-latroinsectotoxin (full-length precursor δ-LIT) (Latrodectus tredecimguttatus)
Experiment: cryo-EM, reference-free 2D classification of particles; full-length δ-LIT at 0.4 mg/ml on holey carbon grids; particles sorted into monomer, dimer, trimer and tetramer classes

## precursor δ-latroinsectotoxin (full-length precursor δ-LIT) (natural protein)
  percent of particles that are dimers: 50%
  percent of particles that are tetramers: 2.5%
  percent of particles that are trimers: 2.5%
  stoichiometry N: 2 and 3 and 4
